This is an account of results in article PMC6230944, “Mitochondrial alternative oxidase‐dependent autophagy involved in ethylene‐mediated drought tolerance in Solanum lycopersicum”.

This data set addresses ERF5 (Solanum lycopersicum, UniProt Q6Q4I4 1-244). Put plainly: EMSA; EMSA Kit with SYBR Green & SYPRO Ruby stains (Invitrogen), per kit instructions; buffer, salt, pH, temperature not stated. As to conditions: protein: recombinant; tags: pET-32a vector fusion (His control used); label: none (SYBR Green stain). In general terms: In EMSA bound probe runs differently from free probe, usually more slowly.

ERF5, sequence (Q6Q4I4 entry or part of it): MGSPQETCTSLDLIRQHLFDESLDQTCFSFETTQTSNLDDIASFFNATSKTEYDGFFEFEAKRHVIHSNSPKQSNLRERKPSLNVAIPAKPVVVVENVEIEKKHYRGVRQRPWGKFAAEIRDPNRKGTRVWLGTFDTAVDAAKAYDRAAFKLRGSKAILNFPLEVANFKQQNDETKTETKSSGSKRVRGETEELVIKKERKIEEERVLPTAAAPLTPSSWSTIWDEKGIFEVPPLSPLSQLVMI

B1: ATG8d-competitor (mutated DRE) (dsDNA)
DNA 1: TCACGTTACATATGACAAACATAAAGATAA
DNA 2: TTATCTTTATGTTTGTCATATGTAACGTGA
For the molecule B1, the binding result is recorded as “no binding”.

B2: ATG18h promoter probe (WT DRE) (dsDNA)
DNA 1: GCGGTGAAAAGACCGACGGACGAAACGTGA
DNA 2: TCACGTTTCGTCCGTCGGTCTTTTCACCGC
As for B2, the binding result is reported as “binds”.

B3: ATG8d promoter probe (WT DRE) (dsDNA)
DNA 1: TCACGTTACATATGACCGACATAAAGATAA
DNA 2: TTATCTTTATGTCGGTCATATGTAACGTGA
For the molecule B3, the binding result is “binds”.

B4: ATG18h-competitor (mutated DRE) (dsDNA)
DNA 1: GCGGTGAAAAGATTGACGGACGAAACGTGA
DNA 2: TCACGTTTCGTCCGTCAATCTTTTCACCGC
With B4, the binding result was “no binding”.
